Experimental data reported in patent US20160264649A1.

What was measured:
Experiment in all cases: cell-based or functional assay
[1] = target: HIV-1 MGRM-A-002 Env (HIV-1)
[2] = target: HIV-1 93RW029 Env (HIV-1)
HIV-1 VLGCA1 Env (HIV-1) = target: HIV-1 VLGCA1 Env (HIV-1)
[3] = target: HIV-1 MGRM-A-010 Env (HIV-1)
[4] = target: HIV-1 92RW020 Env (HIV-1)
[5] = target: HIV-1 SC422661.8 (Acute) Env on pseudovirus (HIV-1)
[6] = target: HIV-1 MGRM-D-026 Env (HIV-1)
[7] = target: HIV-1 94UG103 Env (HIV-1)
[8] = target: HIV-1 MGRM-F1-023 Env (HIV-1)
[9] = target: HIV-1 MGRM-AE-001 Env (HIV-1)
[10] = target: HIV-1 MGRM-F1-017 Env (HIV-1)
[11] = target: HIV-1 MGRM-Chronic-B-023 Env on pseudovirus (HIV-1)
[12] = target: HIV-1 MGRM-Chronic-B-012 Env on pseudovirus (HIV-1)
[13] = target: HIV-1 MGRM-D-003 Env (HIV-1)
[14] = target: HIV-1 92UG024 Env (HIV-1)
[15] = target: HIV-1 MGRM-D-014 Env (HIV-1)
[16] = target: HIV-1 MGRM-Chronic-B-018 Env on pseudovirus (HIV-1)
[17] = target: HIV-1 MGRM-G-009 Env (HIV-1)
[18] = target: HIV-1 VLGCB3 Env on pseudovirus (HIV-1)
HIV-1 APV-17 Env (HIV-1) = target: HIV-1 APV-17 Env (HIV-1)
[19] = target: HIV-1 MGRM-AE-008 Env (HIV-1)
[20] = target: HIV-1 MGRM-F1-022 Env (HIV-1)
[21] = target: HIV-1 MGRM-Chronic-B-024 Env on pseudovirus (HIV-1)
[22] = target: HIV-1 MGRM-C-013 Env on pseudovirus (HIV-1)
[23] = target: HIV-1 MGRM-C-009 Env on pseudovirus (HIV-1)
[24] = target: HIV-1 MGRM-G-017 Env (HIV-1)
[25] = target: HIV-1 MGRM-C-007 Env on pseudovirus (HIV-1)
[26] = target: HIV-1 93IN905 Env on pseudovirus (HIV-1)
[27] = target: HIV-1 MGRM-Chronic-B-004 Env on pseudovirus (HIV-1)
[28] = target: HIV-1 MGRM-Chronic-B-017 Env on pseudovirus (HIV-1)
[29] = target: HIV-1 MGRM-D-018 Env (HIV-1)
[30] = target: HIV-1 MGRM-Chronic-B-002 Env on pseudovirus (HIV-1)
[31] = target: HIV-1 APV_13 Env on pseudovirus (HIV-1)
[32] = target: HIV-1 98CN006 Env on pseudovirus (HIV-1)
[33] = target: HIV-1 IAVI-C18 Env (HIV-1)
[34] = target: HIV-1 LAVI_C22 Env on pseudovirus (HIV-1)
[35] = target: HIV-1 MGRM-AE-004 Env (HIV-1)
[36] = target: HIV-1 LAVI_C3 Env on pseudovirus (HIV-1)
[37] = target: HIV-1 MGRM-Chronic-B-008 Env on pseudovirus (HIV-1)
HIV-1 CMU02 Env (HIV-1) = target: HIV-1 CMU02 Env (HIV-1)
[38] = target: HIV-1 MGRM-C-025 Env on pseudovirus (HIV-1)
[39] = target: HIV-1 MGRM-C-004 Env on pseudovirus (HIV-1)
[40] = target: HIV-1 PVO.4 (Acute) Env on pseudovirus (HIV-1)
[41] = target: HIV-1 MGRM-Chronic-B-011 Env on pseudovirus (HIV-1)
[42] = target: HIV-1 93MW959 Env on pseudovirus (HIV-1)
aMLV envelope = target: aMLV envelope
[43] = target: HIV-1 MGRM-D-013 Env (HIV-1)
[44] = target: HIV-1 94UG114 Env (HIV-1)
[45] = target: HIV-1 MGRM-C-010 Env on pseudovirus (HIV-1)
[46] = target: HIV-1 MGRM-AG-006 Env (HIV-1)
[47] = target: HIV-1 MGRM-Chronic-B-003 Env on pseudovirus (HIV-1)

**Q.** How did the neutralization IC50 [1] turn out when 2G12 (antibody) was run?
**A.** > 50 µg/mL

**Q.** And the neutralization IC50 [2]?
**A.** > 50 µg/mL

**Q.** And the neutralization IC50 (HIV-1 VLGCA1 Env (HIV-1))?
**A.** > 50 µg/mL

**Q.** What about the neutralization IC50 [3] of the same substance?
**A.** 17 µg/mL

**Q.** And the neutralization IC50 [4]?
**A.** 0.48 µg/mL

**Q.** What about the IC50 [5] of the same substance?
**A.** 0.84 µg/mL

**Q.** What about the IC50 (µg/ml), pseudovirus neutralization [6] of the same substance?
**A.** > 50 µg/mL

**Q.** What about the neutralization IC50 [7] of the same substance?
**A.** > 50 µg/mL

**Q.** What about the neutralization IC90 [7] of the same substance?
**A.** > 50 µg/mL

**Q.** And the IC50 (pseudovirus neutralization) [8]?
**A.** 9.23 µg/mL

**Q.** And the IC50 (µg/ml), pseudovirus neutralization [9]?
**A.** > 50 µg/mL

**Q.** And the IC50 (pseudovirus neutralization) [10]?
**A.** > 50 µg/mL

**Q.** And the IC50 [11]?
**A.** 0.16 µg/mL

**Q.** What about the IC50 [12] of the same substance?
**A.** 0.22 µg/mL

**Q.** And the IC50 (µg/ml), pseudovirus neutralization [13]?
**A.** > 50 µg/mL

**Q.** And the IC50 (µg/ml), pseudovirus neutralization [14]?
**A.** 0.42 µg/mL

**Q.** What about the neutralization IC50 [14] of the same substance?
**A.** 0.59 µg/mL

**Q.** And the neutralization IC90 [14]?
**A.** 7.57 µg/mL

**Q.** And the IC50 (µg/ml), pseudovirus neutralization [15]?
**A.** > 50 µg/mL

**Q.** And the IC50 [16]?
**A.** > 50 µg/mL

**Q.** And the IC50 (µg/ml), pseudovirus neutralization [17]?
**A.** > 50 µg/mL

**Q.** And the IC50 [18]?
**A.** 7.9 µg/mL

**Q.** And the neutralization IC50 (HIV-1 APV-17 Env (HIV-1))?
**A.** > 50 µg/mL

**Q.** What about the IC50 (µg/ml), pseudovirus neutralization [19] of the same substance?
**A.** > 50 µg/mL

**Q.** What about the IC50 (pseudovirus neutralization) [20] of the same substance?
**A.** > 50 µg/mL

**Q.** And the IC50 [21]?
**A.** > 50 µg/mL

**Q.** What about the IC50 [22] of the same substance?
**A.** > 50 µg/mL

**Q.** And the IC50 [23]?
**A.** > 50 µg/mL

**Q.** What about the IC50 (µg/ml), pseudovirus neutralization [24] of the same substance?
**A.** > 50 µg/mL

**Q.** And the IC50 [25]?
**A.** > 50 µg/mL

**Q.** What about the IC50 [26] of the same substance?
**A.** > 50 µg/mL

**Q.** What about the IC50 [27] of the same substance?
**A.** 8.65 µg/mL

**Q.** What about the IC50 [28] of the same substance?
**A.** > 50 µg/mL

**Q.** And the IC50 (µg/ml), pseudovirus neutralization [29]?
**A.** 0.12 µg/mL

**Q.** And the IC50 [30]?
**A.** > 50 µg/mL

**Q.** What about the IC50 [31] of the same substance?
**A.** 9.24 µg/mL

**Q.** And the IC50 [32]?
**A.** > 50 µg/mL

**Q.** And the neutralization IC50 [33]?
**A.** > 50 µg/mL

**Q.** What about the neutralization IC90 [33] of the same substance?
**A.** > 50 µg/mL

**Q.** What about the IC50 [34] of the same substance?
**A.** > 50 µg/mL

**Q.** And the IC50 (µg/ml), pseudovirus neutralization [35]?
**A.** > 50 µg/mL

**Q.** What about the IC50 [36] of the same substance?
**A.** > 50 µg/mL

**Q.** What about the IC50 [37] of the same substance?
**A.** 0.55 µg/mL

**Q.** And the IC50 (µg/ml), pseudovirus neutralization (HIV-1 CMU02 Env (HIV-1))?
**A.** > 50 µg/mL

**Q.** What about the neutralization IC50 (HIV-1 CMU02 Env (HIV-1)) of the same substance?
**A.** > 50 µg/mL

**Q.** And the neutralization IC90 (HIV-1 CMU02 Env (HIV-1))?
**A.** > 50 µg/mL

**Q.** What about the IC50 [38] of the same substance?
**A.** > 50 µg/mL

**Q.** And the IC50 [39]?
**A.** > 50 µg/mL

**Q.** What about the IC50 [40] of the same substance?
**A.** 0.8 µg/mL

**Q.** What about the IC50 [41] of the same substance?
**A.** > 50 µg/mL

**Q.** And the IC50 [42]?
**A.** > 50 µg/mL

**Q.** What about the neutralization IC50 (aMLV envelope) of the same substance?
**A.** > 50 µg/mL

**Q.** And the neutralization IC90 (aMLV envelope)?
**A.** > 50 µg/mL

**Q.** What about the IC50 (µg/ml), pseudovirus neutralization [43] of the same substance?
**A.** > 50 µg/mL

**Q.** And the IC50 (µg/ml), pseudovirus neutralization [44]?
**A.** 13.9 µg/mL

**Q.** And the IC50 [45]?
**A.** > 50 µg/mL

**Q.** What about the IC50 (µg/ml), pseudovirus neutralization [46] of the same substance?
**A.** 3.92 µg/mL

**Q.** And the IC50 [47]?
**A.** 0.06 µg/mL
